# T1: fibrinogen, P02671
# T1 chain 1: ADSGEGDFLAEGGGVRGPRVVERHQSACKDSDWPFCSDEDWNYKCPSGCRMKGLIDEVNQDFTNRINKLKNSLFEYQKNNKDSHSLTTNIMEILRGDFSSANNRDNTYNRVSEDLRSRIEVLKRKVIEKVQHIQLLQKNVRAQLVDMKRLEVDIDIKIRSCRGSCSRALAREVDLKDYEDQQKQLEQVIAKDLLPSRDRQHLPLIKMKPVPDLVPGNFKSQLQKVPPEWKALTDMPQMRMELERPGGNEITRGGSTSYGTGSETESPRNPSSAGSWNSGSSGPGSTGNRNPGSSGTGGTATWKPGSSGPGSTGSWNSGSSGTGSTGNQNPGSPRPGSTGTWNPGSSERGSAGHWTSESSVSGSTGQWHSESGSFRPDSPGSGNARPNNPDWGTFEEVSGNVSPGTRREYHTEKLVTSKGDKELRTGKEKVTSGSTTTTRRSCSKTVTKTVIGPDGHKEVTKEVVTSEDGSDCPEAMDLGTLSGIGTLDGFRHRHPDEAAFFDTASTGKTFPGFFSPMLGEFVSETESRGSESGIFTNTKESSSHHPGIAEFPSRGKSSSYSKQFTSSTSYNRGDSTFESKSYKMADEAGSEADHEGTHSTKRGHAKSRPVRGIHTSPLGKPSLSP
# T1 chain 2: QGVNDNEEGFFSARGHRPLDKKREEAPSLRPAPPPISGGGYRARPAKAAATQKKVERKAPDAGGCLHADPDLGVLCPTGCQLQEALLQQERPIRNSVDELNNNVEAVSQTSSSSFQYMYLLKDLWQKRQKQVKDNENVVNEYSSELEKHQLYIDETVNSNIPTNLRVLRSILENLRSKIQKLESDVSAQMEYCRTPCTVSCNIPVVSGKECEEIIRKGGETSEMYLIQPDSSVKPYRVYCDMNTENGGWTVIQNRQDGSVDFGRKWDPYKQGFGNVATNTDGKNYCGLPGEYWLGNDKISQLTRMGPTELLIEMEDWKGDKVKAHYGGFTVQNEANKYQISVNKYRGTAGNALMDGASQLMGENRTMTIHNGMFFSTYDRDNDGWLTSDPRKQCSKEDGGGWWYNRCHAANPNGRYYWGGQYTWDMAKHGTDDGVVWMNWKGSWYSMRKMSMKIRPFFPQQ
# T1 chain 3: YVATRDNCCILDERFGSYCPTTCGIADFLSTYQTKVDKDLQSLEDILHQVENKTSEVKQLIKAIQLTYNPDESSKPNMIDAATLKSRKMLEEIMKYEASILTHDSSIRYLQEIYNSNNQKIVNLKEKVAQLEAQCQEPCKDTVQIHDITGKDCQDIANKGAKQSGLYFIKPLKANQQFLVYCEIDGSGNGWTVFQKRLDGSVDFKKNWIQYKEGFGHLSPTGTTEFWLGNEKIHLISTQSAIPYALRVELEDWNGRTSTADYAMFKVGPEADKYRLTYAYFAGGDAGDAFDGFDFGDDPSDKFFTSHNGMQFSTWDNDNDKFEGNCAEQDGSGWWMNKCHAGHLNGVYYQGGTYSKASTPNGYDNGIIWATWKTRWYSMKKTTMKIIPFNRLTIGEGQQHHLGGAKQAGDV
# Legend:
# fibrinogen = fibrinogen (UniProt P02671); test: SPR
# collagen = test: cell adhesion assay
# fibrinogen, P02671 = target: T1, fibrinogen, P02671; test: cell adhesion assay; conditions: remark: other sources report otherwise
molecule,measurement,setting,value
"recombinant soluble GPVI extracellular domain, monomer (GPVI-ex) (from UniProt Q9HCN6 21-267) (domain or fragment)",Kd,fibrinogen,336 nM
same,koff,fibrinogen,0.00394 s⁻¹
same,kon,fibrinogen,11700 M⁻¹ s⁻¹
human GPVI expressed on RBL-2H3 cells (from UniProt Q9HCN6 21-339) (receptor),fold increase in cell adhesion relative to mock-transfected cells,collagen,3 fold
"human GPVI expressed on RBL-2H3 cells, Q9HCN6 21-339 (receptor) QSGPLPKPSLQALPSSLVPLEKPVTLRCQGPPGVDLYRLEKLSSSRYQDQAVLFIPAMKRSLAGRYRCSYQNGSLWSLPSDQLELVATGVFAKPSLSAQPGPAVSSGGDVTLQCQTRYGFDQFALYKEGDPAPYKNPERWYRASFPIITVTAAHSGTYRCYSFSSRDPYLWSAPSDPLELVVTGTSVTPSRLPTEPPSPVAEFSEATAELTVSFTNEVFTTETSRSITASPKESDSPAGPARQYYTKGNLVRICLGAVILIILAGFLAEDWHSRRKRLRHRGRAVQRPLPPLPPLPLTRKSNGGQDGGRQDVHSRGLCS",fold increase in cell adhesion relative to mock-transfected cells,"fibrinogen, P02671",3 fold
